The results in this text go back to doi:10.1101/2021.06.08.447555 (bioRxiv, 2021).

In general, stoichiometry N refers to a count of units in the complex or per binding partner.

The data set deals with the molecule itself. Put plainly: SEC. On the technique in general: SEC sorts molecules by how far they enter the pores of the column.

B1: His6-eVP40 (Ebola virus matrix protein VP40) (natural protein)
chain: MRRVILPTAPPEYMEAIYPVRSNSTIARGGNSNTGFLTPESVNGDTPSNPLRPIADDTIDHASHTPGSVSSAFILEAMVNVISGPKVLMKQIPIWLPLGVADQKTYSFDSTTAAIMLASYTITHFGKATNPLVRVNRLGPGIPDHPLRLLRIGNQAFLQEFVLPPVQLPQYFTFDLTALKLITQPLPAATWTDDTPTGSNGALRPGISFHPKLRPILLPNKSGKKGNSADLTSPEKIQAIMTSLQDFKIVPIDPTKNIMGIEVPETLVHKLTGKKVTSKNGQPIIPVLLPKYIGLDPVAPGDLTMVITQDCDTCHSPASLPAVIEK
With B1, the “stoichiometry N” value was 2.
